Laboratory results taken from the supplement of paper PMC10567573.

B1: ATL3 (parent)
chain: QELEEEIKELYENFCKHNGSKNVF

Variants of: B1
Test: protein stability index of a GFP-peptide fusion (GPS, HEK-293T) (PSI 1-6); higher = more stable
Conditions: c terminus: a fixed tail appended
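Note: lentivirally expressed fusions sorted by FACS into six bins by GFP to DsRed ratio, PSI derived from sequencing read proportions per bin multiplied by bin number.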

Variant	protein stability index
QELEEEIEELYENFCKHNGSKNVF	3.63
QELEEEIKNLYENFCKHNGSKNVF	2.77
QELEEEIKELYENFCWHNGSKNVF	2.91
QELEEEIKELYENHCKHNGSKNVF	4.07
QELEEEIKELCENFCKHNGSKNVF	4.16
QELEEEIKELYENFCKHNGSINVF	2.12
QELEEEIKMLYENFCKHNGSKNVF	2.47
QELEEEIKELYENFCKYNGSKNVF	2.42
QELEEEIKELYENFCKHNLSKNVF	2.55
QELEEEIKDLYENFCKHNGSKNVF	3.39
QELEEEIKELYENFCKHNRSKNVF	2.54
QELEQEIKELYENFCKHNGSKNVF	1.81
QELEEEIKELYENFCKHNGSKNVT	3.11
QELAEEIKELYENFCKHNGSKNVF	1.97
QELEFEIKELYENFCKHNGSKNVF	2.27
QELEEEIKELYENFCKHNGSKNVC	3.17
QELEEEIKELYENFCKHNGWKNVF	2.16
QELEEEIKELYENFCKHNGSKTVF	2.16
QELEEEIKELYENFCKHNGSKNGF	2.94
QELEEEIKELYENFCKHNESKNVF	2.11
QELEEEIKEFYENFCKHNGSKNVF	3.23
QGLEEEIKELYENFCKHNGSKNVF	3.14
QELEEEIKELYENFCPHNGSKNVF	3.88
QELEEEIKHLYENFCKHNGSKNVF	2.27

Variant	protein stability index
QALEEEIKELYENFCKHNGSKNVF	2.38
QELEEEIKEYYENFCKHNGSKNVF	3.92
QELEEEIKRLYENFCKHNGSKNVF	2.59
VELEEEIKELYENFCKHNGSKNVF	2.08
QELEEEIKELYENVCKHNGSKNVF	3.53
QNLEEEIKELYENFCKHNGSKNVF	3.65
QELEMEIKELYENFCKHNGSKNVF	2.81
QELEWEIKELYENFCKHNGSKNVF	1.73
QELETEIKELYENFCKHNGSKNVF	2.45
QELEEEIKELYENFCKHNDSKNVF	2.46
QELEEEIKELYQNFCKHNGSKNVF	2.39
QELEEEIKELYENFCKHNGMKNVF	2.24
QEVEEEIKELYENFCKHNGSKNVF	2.28
QELEEEIKELYENFCKHNYSKNVF	2.85
QELEEEIKELYENFCKWNGSKNVF	2.46
QELEEEIKELYENFYKHNGSKNVF	3.77
QELEEEIKELYENFCKHNGAKNVF	2.66
QEMEEEIKELYENFCKHNGSKNVF	3.02
QELEEEIKELYENECKHNGSKNVF	5.25
QELEEEIKELYENFCKHNGSKDVF	1.91
QELEELIKELYENFCKHNGSKNVF	1.75
QELEEEIKENYENFCKHNGSKNVF	4.05
QELEEEIKELYENFCKHNNSKNVF	2.69
QELEEEIKELYENFCKHNGSKIVF	2.48

Variant	protein stability index
QELEEEIKELYENFCKCNGSKNVF	2.65
QELEEEIKELYENFCKHAGSKNVF	2.24
QELEEEKKELYENFCKHNGSKNVF	4.71
QELEEEMKELYENFCKHNGSKNVF	3.8
QELEEEIKELYENFEKHNGSKNVF	3.86
QELEEEIKELYENFCKHNGSKNTF	2.49
QEEEEEIKELYENFCKHNGSKNVF	4.29
QELEEEIHELYENFCKHNGSKNVF	2.86
QELEAEIKELYENFCKHNGSKNVF	1.96
QELEEEIKELYENFCKHNISKNVF	2.99
QELEEEIKELYENFCKHNGSKLVF	2.57
QELEEEIKELYENICKHNGSKNVF	3.16
QELEEEIKELYENFCKENGSKNVF	2.51
QELEEEIKELYENFCKHNGIKNVF	2.54
QELEEEIKELYENFNKHNGSKNVF	3.97
QELEEEIKELYENFCKHNGSKNWF	2.85
QELEEEIKELYENFCKHNGSKNRF	3.44
QEIEEEIKELYENFCKHNGSKNVF	3.14
QELEEEIKELYENFCDHNGSKNVF	3.53
QEQEEEIKELYENFCKHNGSKNVF	4.01
QELEEEIKELYENFCLHNGSKNVF	3.09
QELEEEIKELYESFCKHNGSKNVF	2.6
QELEEEIKELYENFPKHNGSKNVF	3.91
QELEEEIKELYENFCKHNGSKAVF	2.96

Variant	protein stability index
QELEEEIKELYDNFCKHNGSKNVF	2.89
QELEEEIKELYENFCKHNGCKNVF	2.28
QELEEEIKELYENFCKHNGSKNMF	3.24
QELGEEIKELYENFCKHNGSKNVF	3.2
QELEEEIKELYENFRKHNGSKNVF	3.3
QELEEEIKELYEFFCKHNGSKNVF	2.72
QELELEIKELYENFCKHNGSKNVF	2.23
QELEEEIKELYENFCKHNTSKNVF	2.25
QELEEEIKELYENFCKHNGSCNVF	2.1
QELEEEIKELYEGFCKHNGSKNVF	3.76
QELEEEIKELGENFCKHNGSKNVF	4.74
QELEHEIKELYENFCKHNGSKNVF	2.42
QELEEQIKELYENFCKHNGSKNVF	3.18
QELEEEIKELYENGCKHNGSKNVF	4.42
QELNEEIKELYENFCKHNGSKNVF	3.96
QELEEEIKEHYENFCKHNGSKNVF	4.33
QELEEEIKELYENFCKHNGGKNVF	2.48
QELEEEIKELYENDCKHNGSKNVF	4.46
QELEEEISELYENFCKHNGSKNVF	3.37
QELEEEIKELYENFTKHNGSKNVF	3.5
QELEEEIKELYEPFCKHNGSKNVF	3.73
QELEEEIKELYENFCKHNGSLNVF	2.15
